Experimental data from FireProtDB (doi:10.1110/ps.8.9.1843).

B1: Guanyl-specific ribonuclease Sa wild type, P05798 (protein)
chain: DVSGTVCLSALPPEATDTLNLIASDGPFPYSQDGVVFQNRESVLPTQSYGYYHEYTVITPGARTRGTRRIITGEATQEDYYTGDHYATFSLIDQTC
B2: Guanyl-specific ribonuclease T1 wild type, P00651 (protein)
chain: MMYSKLLTLTTLLLPTALALPSLVERACDYTCGSNCYSSSDVSTAQAAGYQLHEDGETVGSNSYPHKYNNYEGFDFSVSSPYYEWPILSSGDVYSGGSPGADRVVFNENNQLAGVITHTGASGNNFVECT

Conditions: CD, whole UniProt chain shown; for denaturant m value / denaturant midpoint (higher = more stable): Aspergillus oryzae (strain ATCC 42149 / RIB 40), 25 °C, Urea
[1] = Kitasatospora aureofaciens, pH 7, Thermal, MOPS 30 mM

Row | Protein | Tm [1] [°C] | unfolding enthalpy (van 't Hoff) [1] [kcal/mol] | denaturant m value (pH 2.5, glycine 30 mM) [kcal/mol/M] | denaturant midpoint (higher = more stable) (pH 2.5, glycine 30 mM) [M] | denaturant m value (pH 7, MOPS 30 mM) [kcal/mol/M] | denaturant midpoint (higher = more stable) (pH 7, MOPS 30 mM) [M]
1 | B1 | 47.2 | 91 | – | – | – | –
2 | B2 | – | – | 1.59 | 3.66 | 1.23 | 5.23
